Here are results for one molecule from publication PMC9400459 (Science (New York, N.y.), 2022).

The target of the assay is SARS-CoV-2 receptor binding domain (SARS-CoV-2, UniProt P0DTC2). The experiment in a line: cell-based or functional assay.

B1: S2K146 human monoclonal antibody (antibody, V domains shown)
VH: QVQLVESGGVVVQPGGSLRLSCAASGFTFHDHTMHWVRQAPGKGLEWVSLITWNGGTIHYSDSVKGRFTISRDNSKNSLYLQMNSLRTEDTALYYCAKDLGRGGWYLPSDAWGQGTLVTVSS
VL: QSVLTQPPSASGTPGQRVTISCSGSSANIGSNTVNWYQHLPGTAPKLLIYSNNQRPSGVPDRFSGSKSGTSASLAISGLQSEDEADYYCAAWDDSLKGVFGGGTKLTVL
Consider B1, for which the “IC50 of neutralisation of authentic SARS-CoV-2 (isolate USA-WA1/2020, lineage A)” value was found to be 10 ng/mL.
